Data: patent publication US7255862

Legend:
[1] = target: feline immunodeficiency virus (FIV) Gag, Villefranche strain, expressed by ALVAC recombinants (vCP21 (feline immunodeficiency virus, Villefranche strain)); test: sandwich kinetic ELISA, plate coated with pooled FIV gag-specific MAb 2 ug/well, gag lysate 1 ug/well, control rabbit serum 1:100
[2] = target: feline immunodeficiency virus (FIV) Gag, Villefranche strain, expressed by ALVAC recombinants (vCP21 (feline immunodeficiency virus, Villefranche strain)); test: sandwich kinetic ELISA, plate coated with pooled FIV env-specific MAb 2 ug/well (mismatched capture control), gag lysate 0.2 ug/well, control rabbit serum 1:100
[3] = target: feline immunodeficiency virus (FIV) Gag, Villefranche strain, expressed by ALVAC recombinants (vCP21 (feline immunodeficiency virus, Villefranche strain)); test: sandwich kinetic ELISA, plate coated with pooled FIV env-specific MAb 2 ug/well (mismatched capture control), gag lysate 5 ug/well, control rabbit serum 1:100
[4] = target: feline immunodeficiency virus (FIV) Gag, Villefranche strain, expressed by ALVAC recombinants (vCP21 (feline immunodeficiency virus, Villefranche strain)); test: sandwich kinetic ELISA, plate coated with pooled FIV env-specific MAb 2 ug/well (mismatched capture control), gag lysate 1 ug/well, control rabbit serum 1:100
[5] = target: feline immunodeficiency virus (FIV) Gag, Villefranche strain, expressed by ALVAC recombinants (vCP21 (feline immunodeficiency virus, Villefranche strain)); test: sandwich kinetic ELISA, plate coated with pooled FIV gag-specific MAb 2 ug/well, gag lysate 5 ug/well, control rabbit serum 1:100
[6] = target: feline immunodeficiency virus (FIV) Gag, Villefranche strain, expressed by ALVAC recombinants (vCP21 (feline immunodeficiency virus, Villefranche strain)); test: sandwich kinetic ELISA, plate coated with pooled FIV gag-specific MAb 2 ug/well, gag lysate 0.2 ug/well, control rabbit serum 1:100

Rabbit A039 prebleed serum
KELISA (mOD/min) [1]: 1.2 mOD/min
KELISA (mOD/min) [2]: 0.9 mOD/min
KELISA (mOD/min) [3]: 1 mOD/min
KELISA (mOD/min) [4]: 0.8 mOD/min
KELISA (mOD/min) [5]: 1 mOD/min
KELISA (mOD/min) [6]: 1.3 mOD/min
